Data as given in paper PMC7527728, “CPSF6-Dependent Targeting of Speckle-Associated Domains Distinguishes Primate from Nonprimate Lentiviral Integration” (mBio, 2020).
Read-outs that look alike come from different tables or passages of the source.

Key:
SIVmac [1] = assay: CPSF6-358 restriction assay, SIVmac; type: cell-based; conditions: HEK293T expressing CPSF6-358 vs vector, Luc virus, range of virus inocula (Fig. 5C)
Procedure: (§1) Vector control HEK293T cells were infected with GFP viruses at approximate MOIs of 0.4 to 0.5 alongside cells expressing CPSF6-358 (Fig. 5A).
(§2) HEK293T cells were cultured at 37°C in Dulbecco’s modified Eagle’s medium containing 10% (vol/vol) fetal bovine serum (FBS), 100 IU/ml penicillin, and 100 μg/ml streptomycin (DMEM) in humidified incubators in the presence of 5% CO2.
(§3) Single-cycle GFP and Luc reporter viruses were produced by cotransfection of HEK293T cells in 10-cm dishes with 15 μg total of various ratios of virus production plasmids using PolyJet DNA transfection reagent (SignaGen Laboratories). […] Concentrations of retroviral particles in mU/ml were determined using a TaqMan-based product-enhanced reverse transcriptase (Taq-PERT) real-time PCR assay ([80]).
(§4) Infections were conducted in duplicate in 24-well plates (10^5 cells/well). […] GFP reporter viral MOIs were determined as percentage of GFP-positive cells using a FACSCanto flow cytometer (BD Biosciences). […] Cell lysates were centrifuged at 17,500 × g for 8 min, and supernatants were analyzed in triplicate for luciferase activity. Relative light units (RLU), determined by luminometer (Berthold Technologies), were normalized to total protein concentration as measured by Pierce BCA protein assay kit (Thermo Fisher Scientific).

FIV = assay: CPSF6-358 restriction assay, FIV; type: cell-based; conditions: HEK293T expressing CPSF6-358 vs vector control, GFP virus, MOI 0.4 to 0.5, 48 h (Fig. 5B)
Procedure: as §1, §2, §3, §4

MLV = assay: CPSF6-358 restriction assay, MLV; type: cell-based; conditions: HEK293T expressing CPSF6-358 vs vector control, GFP virus, MOI 0.4 to 0.5, 48 h (Fig. 5B)
Procedure: as §1, §2, §3, §4

BIV = assay: CPSF6-358 restriction assay, BIV; type: cell-based; conditions: HEK293T expressing CPSF6-358 vs vector control, GFP virus, MOI 0.4 to 0.5, 48 h (Fig. 5B)
Procedure: as §1, §2, §3, §4

EIAV = assay: CPSF6-358 restriction assay, EIAV; type: cell-based; conditions: HEK293T expressing CPSF6-358 vs vector control, GFP virus, MOI 0.4 to 0.5, 48 h (Fig. 5B)
Procedure: as §1, §2
(§5) Infections were conducted in duplicate in 24-well plates (10^5 cells/well). After 6 to 8 h, medium was replaced with fresh DMEM or RPMI, and cells were harvested at 48 h from the start of the experiment. GFP reporter viral MOIs were determined as percentage of GFP-positive cells using a FACSCanto flow cytometer (BD Biosciences).

primate lentiviruses = assay: CPSF6-358 restriction assay, primate lentiviruses; type: cell-based; conditions: HEK293T expressing CPSF6-358 vs vector control, GFP viruses, MOI 0.4 to 0.5, 48 h (Fig. 5B)
Procedure: as §1, §2, §5

HIV-1 [2] = conditions: HEK293T expressing CPSF6-358 vs vector, Luc virus, range of virus inocula (Fig. 5C)
Procedure: as §1, §2, §3, §4

HIV-2 = test system: HIV-2; design: method as in PMID 20227665; conditions: cited from earlier work
SIVmac [3] = test system: SIVmac; design: method as in 2 sources, ref 33 = [33]; PMID 20227665; doi:10.1016/j.chom.2010.02.007; 33. Lee K , Ambrose Z , Martin TD , Oztop I , Mulky A , Julias JG , Vandegraaff N , Baumann JG , Wang R , Yuen W , Takemura T , Shelton K , Taniuchi I , Li Y , Sodroski J , Littman D , Coffin J , Hugh ||| ref 35 = [35]; PMID 24130490; doi:10.1371/journal.ppat.1003693; 35. Matreyek KA , Yücel SS , Li X , Engelman A 2013 Nucleoporin NUP153 phenylalanine-glycine motifs engage a common binding pocket within the HIV-1 capsid protein to mediate lentiviral infectivity . P; conditions: cited from earlier work
SIVmne = test system: SIVmne; design: method as in PMID 20227665; conditions: cited from earlier work
HIV-1 [4] = conditions: cited from earlier work

B1: CPSF6-358 (protein, UniProt Q16630 1-358, looked up, fragment)
chain: MADGVDHIDIYADVGEEFNQEAEYGGHDQIDLYDDVISPSANNGDAPEDRDYMDTLPPTVGDDVGKGAAPNVVYTYTGKRIALYIGNLTWWTTDEDLTEAVHSLGVNDILEIKFFENRANGQSKGFALVGVGSEASSKKLMDLLPKRELHGQNPVVTPCNKQFLSQFEMQSRKTTQSGQMSGEGKAGPPGGSSRAAFPQGGRGRGRFPGAVPGGDRFPGPAGPGGPPPPFPAGQTPPRPPLGPPGPPGPPGPPPPGQVLPPPLAGPPNRGDRPPPPVLFPGQPFGQPPLGPLPPGPPPPVPGYGPPPGPPPPQQGPPPPPGPFPPRPPGPLGPPLTLAPPPHLPGPPPGAPPPAPHVN
SIVmac [1]
  restriction of infection, in words: restriction of HIV-1 and SIVmac-Luc viruses was observed across a range of virus inocula
FIV
  restriction of infection, in words: did not significantly restrict FIV infection
MLV
  restriction of infection, in words: MLV-GFP similarly infected control and CPSF6-358-expressing cells
BIV
  restriction of infection, in words: infection by BIV was similarly unaffected
EIAV
  restriction of infection, in words: failed to appreciably restrict EIAV infection
Primate lentiviruses
  restriction of infection, in words: potently restricted infection by primate lentiviruses
HIV-1 [2]
  restriction of infection, in words: restriction of HIV-1 and SIVmac-Luc viruses was observed across a range of virus inocula
HIV-2
  restriction of infection, in words: restricted infection
SIVmac [3]
  restriction of infection, in words: restricted infection
SIVmne
  restriction of infection, in words: restricted infection
HIV-1 [4]
  restriction of infection, in words: restricted infection
